From paper PMC1475855
Each block holds one substance with its values, some of them ahead of it.

Tests used:
Test in all cases: SEC; FPLC of native protein with His-tag cleaved; HiLoad-16/60 Superdex200, 1 x PBS, 4°C, 1 ml/min; column calibrated with catalase, aldolase, chymotrypsinogen A and ribonuclease A
[1] = target: GFP from the orange seapen Ptilosarcus gurneyi (Pt-GFP) (Ptilosarcus gurneyi)
[2] = target: ecliptic pHluorin (Aequorea victoria)
[3] = target: ratiometric pHluorin (Aequorea victoria)

- stoichiometry N [1]: 4
Substance: GFP from the orange seapen Ptilosarcus gurneyi (Pt-GFP) (natural protein)

- stoichiometry N [2]: 2
Substance: ecliptic pHluorin

- stoichiometry N [3]: 2
Substance: ratiometric pHluorin
